Consider one substance from patent US20040253677.

The test system of the series is HA-GβL.

For myc-mTOR (full-length), the “in vitro mTOR kinase activity (autophosphorylation and activity towards GST-S6K1)” value was “GβL-mediated stimulation of the mTOR kinase activity correlates with the amount of GβL bound to mTOR and is independent of raptor”.
